This note sets out measurements from the nanobody polyreactivity screen of Harvey et al. (2022).

The data set can be described thus: yeast display, Sf9 membrane polyspecificity reagent, FACS + sequencing; frameworks hold sequencing errors. In a few lines:
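Using colony PCR, genes from sorted yeast display clones were amplified, then sequenced on MiSeq at 2 × 250 and filtered by CDR length. The clones had been stained with 10% biotinylated, detergent-solubilized Sf9 membrane reagent for 1 hour at 4 °C and sorted by FACS into low and high (top ~1%) gates on anti-HA and streptavidin fluorescence. Polyreactivity labels come from the gate of origin.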
On to “QVQLVESGGGLVQAGGSLRLSCAASGFTFQENAMGWYRQAPGKERELVAAISKSGGITYYADSVKGRFTISRDNAKNTVYLHMNSLKPEDTAVYYCNKGNAYVVYTSGYDYWGQGTQVTVSS”, for which the “polyreactivity (PSR sort gate)” value is listed as “low polyreactivity”. The entry for “QVQLVESGRGLVQAGGSLRLSCAASGSTFGGYAMGWNRPAPGKERELVAAISIEGGSTYYAESVKGRFTISRDNAKNTVYLQMNSLKPEDTAVYYCNADEYYYGYNYWGQATQVTVSS” is “low polyreactivity”; for “QVQLVESGGGLVQAGGSLRLSCAASGFTIWQNAMGWYRQAPGKERELVAGIRLSGGSTYADSVKGRFTISRDNAKNTVYLQMNSLKAEDTAVYYCNAAYKNSPYDYWGQGTQVTVSS” it is “high polyreactivity”; for “QVQLVESGGGLVQAGGSLRLSCAASGRTFTSYVMGWYIQAPGKERELVAAITRGGRSYYADSVKGRFTISRDNAKKTVYLQMNSLTPEDTAVYYCGARYSVSYNYWGQGTQVTVSS” it is “high polyreactivity”. The entry for “QVQLVESGGGLVQAGGSLRLSCAASGFTFGWYAMGRYRQAPGKERELVAAISRGGSTYYADSVKGRFTISRDNAKNTVYLQMNSLKPEDTAVYYCNAAGLPTQLYYWGQGTQVTVSS” is “high polyreactivity”; for “QVQLQESGGGLVQAGGSLRLSCAASGYISYFVGMGWYRQAPGKEREFVASIADGSNTYYADSVKGRFTISRDNAKNTVYLQRNSLKQEDTAVYYCAVEDSWTYRFDYWGQGTQVTVSS” it is “high polyreactivity”; for “QVQLVESGGGLVQAGGSLRLSCAASGSTFEYYAMGWYRQAPGKERELVATISIDGRTNYADSVKGRFTISRDNAKNTVYLQMNSLKPEDTAVYYCAADTNWSPGYIMYYRSDYWGQGTQVTVSS” it is “low polyreactivity”.

Take “QVQLVESGGGLVQAGGSLRLSCAASGIFTYNAMGWYRQAPGKERELVASITRGGSTNYADSVKGRFTISLDNAKNTVYLQRNSLKPEDTAVYYCAARVRVYSGWLYNYWGQGTQVTVSS”: the “polyreactivity (PSR sort gate)” value is recorded as “high polyreactivity”. As for “QVQLVESGGGLVQAGGSLRLSCAAYGRISYYYAMGWYRQAPGKERELVAAITYSTGSTYYADSVKGRFTISRDNAKNTVYLQMNSLKPEDSAVYYCAARYWRWLFPFDYWGQGTKVTVSS”, the entry is “high polyreactivity”; as for “QVQLVESGGGLVQAGASLRLSCAASGFIFGGNAMGWYRQAPGKERELVAAISTTGGRTYYADSVKGRFTISRDNAKNTVYLQMNSRKPEDTAVYYCNAGYDSYCRYYWYWYSFNYWGQGTQVNVSS”, “high polyreactivity”; as for “QDQLLESGGGLVQAGGSLLLSCAASGSTFFDYAMGWYRQAPGKERELVAVISDGGTTTYADSVKGRFTISRDNAKNTVYLQMNSLKPEDTAVYYCAAENQDGLLVILGGYGYWGQGTQVTVSS”, “low polyreactivity”. As for “QVQLVESGGGLVQAGGSLRISCAASGSTFDGNAMGWYRQAPGKERELVAAISDGDSTTNADSVKGRFTISRDNAKNTVYLQMNSLKPEDTAVYYCAARSPGDQRLGRHYYGEFDYWGQGTQVTVSS”, the entry is “low polyreactivity”; as for “QVQLVESGGGLVQAGGSLRLSCAASGLIFRRYALGWYRQAPGKERELVAVISSGGRTYYADSVKGRFTISRDNAKNTVYLQMNSLKPEDTAVYYCAARTRSYWGTYGSYHYDYWGQGTQVTVSS”, “high polyreactivity”.

With “QVQLVESGGGLVQAGGSLRLSCAASGSILPVNAMGWYRQAPGKERELVAAITSSGSTTYADSVKGRFTISRDNAKNTVYLQMNSLKEEDTAVYYCAADVYWSYYLYYIYKGGYWGQGTQVTVSS”, the “polyreactivity (PSR sort gate)” value is listed as “low polyreactivity”. As for “QVQLVESGGGLVQAGGSLRLSCAASGSTFFLYAMGWYRQAPGKERELVAAITWRSGRTYYADSVKGRFTISRDNAKNTVYLQMNSLKPEDTAVYYCAADYVLGEVVRYDYWGQGTQVTVSS”, the entry is “high polyreactivity”; as for “QVQLVESGGGLVQAGGSLRLSCAASGRIFFYNDMGWYRQAPGKERELVASISSGTSTYYADSVKGRFTISRDNAKNTVYLQMNSLKPEDTAVYYCATGRPWHYSSATYDYWGQGTQVSVSS”, “low polyreactivity”; as for “QLQLVESGGGLVQAGGSLRLSCAASGRIFWPNALGWYRQAPGKEREFVAAIRWSSDRTYYADSVKGRFTISRDNAKNTVYLQRNSLKPEDTAVYYCNAVRYVISKYDYWGQGTQVTVSS”, “high polyreactivity”. The entry for “QVQLVESGGGLVQAGGSLRLSCAASGSTFKYYTMGWYRQAPGKERELVAAITSGGSTNYADSVKGRFTISRDNAKNTVYLQMNSLNPEDTAVYYCAAGGRRFYVGVIYDYWGQGNQVTVSS” is “high polyreactivity”; for “QVQLVESGGGLVQAGGSLRLSCAASGRTSWYYAMGWYRQAPGNERELVATITRSTGSTYYADSVKGRFTISRDNAKNTVYLQMNCLKPEDTAVYDCARLYYFNGDYWGQGTQVTVSS” it is “high polyreactivity”. The entry for “QVQLVESGGGLVQAGGSLRLSCAASGFTFVSNAMGWYRQAPGKERELVAAISGSGGSTYYADSVKGRFTISRDNAKNTVYLQMNSLKPEDTAVYYCAKGSRSYVRKMDYWGQGTQVTVSS” is “low polyreactivity”; for “QVQLVESGGGLVQAGGSLRLSCAASGFTFKYYTMGWYRQAPGKERELVAVISRTGSTNYADSVKGRFTISRDNAKNTVYLQMNSLKPEDTAVYYFITARGKYAFFDVDYWGQGTQVTVTS” it is “high polyreactivity”. As for “QVQLVESGGCLVQAGGSLRLSCAASGSTIGVNAMGWYRQAPGKERELVAAISRGGGRTYYADSVKGRFTISRDNAKNTVYLQMNSLKPEDTAVYYCNTDFGARMGYCGQGTQVTVSS”, the “polyreactivity (PSR sort gate)” value is listed as “high polyreactivity”.

Turning to “QVQLVESGGGLVQAGGSLRLSCAASGSIFVVNAMGWYRQAPGKERELVAAIRLSGGSTYYADSVKGRFTISRDNAKNTVYLQMNSLKPEDTAVYDCAARYRELRTEYYYWGQGTQVTVSS”, the “polyreactivity (PSR sort gate)” value is given as “high polyreactivity”. As for “QVQLVESAGGLVKAGGSLRLSCAAYGSTFSYYTMGWYRQAPGKERELVAAITRRGDSTYADSVKGRFTISRDNAKNTVYLQMNSLKPEDTAVYYCAADASVGVSGMDYWGQGTQVTVSS”, the entry is “low polyreactivity”; as for “QVQLVESGGGLVQAGGSLRLSCAASGIIFENYAMGWYRQAPGKERELVAAITIGGSTYYADSVKGRFTISRDNAKNTVYLQMNSLKPEDTAVYYCAARSGAQRGGGYWGQGTQVTVSS”, “high polyreactivity”; as for “QVQLVESGGGLVQAGGSLRLSCAASGSTFPTYAMGWYRQAPGKERELVAAITRGGSTYYADSVKGRFTISRDNAKNTVYLQMHSRKPEDTSVYYCAVYEFLGQIGKRDYWGQGTQVTVSS”, “low polyreactivity”. As for “QVQLVESGGGLVQAGGSLRLSCAASGIIFTNYSMGWYRQAPGKERELVAAISKGAGRTYYADSVKGRFTISRDNAKNTVYLQMNSLKPEDTAVYYCNKAKRSGGYPGVFSYDYWGQGTQVTVSS”, the entry is “high polyreactivity”; as for “QVQLVESGGGLVQAGGRLRLSCAASGFTFSVYPMGWYIQAPGKERELVAAISWSGGSTYYADSVKGRFTISRDNAKNTVYVQMNSLKPEDTAVYYCNAYFSYKYRYPEDYWGQGTQVTVSS”, “high polyreactivity”; as for “QVQLVESGGGLVQAGGSLRLSCAASGSIFPIYAWGWYRQAPGKERELVAAISGSGARTYYSDSVKGRFTISRDNAKNTVYLQMNSLKPEDTAVYYCNAKYGYDSEARIVKPVRYDYWGQGTQVTVSS”, “high polyreactivity”. As for “QVQLVESGGGLVQAGGSLRLSCAASGSIFYRNGMGWYRQAPGKERELVAAISGRGGSTNYADSVKGRFTISRDNAKNTVYLQMNSLKPEDTAVYYCNRYGVSNILVRGGYWGQGTQVTVSS”, the entry is “high polyreactivity”; as for “QVQLVESGGGLVQAGGSLRLSSAATGSTSYNDMGWYRQATGKQRELGASITSSGDDTYYADSVKGRFTISRDNAKNTVYLQMNSLKPEDNAVYYCAAEDYHRHVGSYYVIDYDYWGQGTQVTVSS”, “low polyreactivity”; as for “QVQLVESGGGLVQAGGSLRLSCAASGRIFQGYAMGWYRQAPGKERELVAAITRSGGSTYYADSVKGRFTISRDNAKNTVYLQMNSLKPEDTAVYYCAASHYGLLEYWGQGTQVTVSS”, “low polyreactivity”. On to “QVQLVESGGGLVQAGGSLRLSCAASGNIFLYYAMGWYRQAPGNERELVADIDSSGASTYYADSVKGRFTISRDNAKNTVYFQMNSLKPEDTAVYYCASEFHWWYAGYDYGYWGQGTQVTVSS”, for which the “polyreactivity (PSR sort gate)” value was “low polyreactivity”. The entry for “QVQLVESGGGLVQAGGSLRLSCAASGYIYPPYAMRWYRQAPGKERELVATITRIGGSTYYADSVKGRLTMSRDNAKNTVDLQMNSLKPEDTAVYYCAARRDCGPYLSPENPAPMDYWGQGTQVTVSS” is “low polyreactivity”. The entry for “QVQLVEAGGGLVQAGGSLRLSCASSGRIFNLYAMALYRQAPGKERELVAAINWSGDRTSYADSVKGRFTISRDNAKNTVYLQMNSLKPEDTAVYYCAAEYGLGDDTAYGYWGQGTQVTVSS” is “low polyreactivity”. As for “QVQLVESGGGLVQAGGSLRVSCAASGYTFVIYAMGWYRQAPGKERELVAAITTIGGRTYYADSVKGRFTISRDNAKNTVYLQMYSLKPEDTAVYYCATAAVTPVWYDYWGQGTQVTVSS”, the entry is “low polyreactivity”; as for “QVQLVETGGGLVQAGGSLRLSCAASGRTFDPNAMGWYRQAPGKERELVAAIDWTGGRTYYADSVKGRFTISRDNAKNTVYLQMNSLKPEDTAVYYCAARYYRFRSSRDYWGQGTQVTVSS”, “high polyreactivity”. As to “QVQLVESGGGLVQAGGSLRLSCAASGSIFYAYTMGWYRQAPGKERELVARITQSDDGTYYADSVKGRFTISRDNAKNTVYLQMNSLKPEDTAVYYCAVVFWQLAHRYDYWGQGTQVTVSS”, the “polyreactivity (PSR sort gate)” value is given as “low polyreactivity”. As for “QVQLVESGGGLVQAGGSLRLSCAASGIIFSRYAMGWYRQAPGKERELVAAISSSGGTTYYADSVKGRFTISRDNAKNTVYLQMNSLKPEDTAVYYCYAPAFYKYKSFYAHSGYDYWGQGTQVTVSS”, the entry is “high polyreactivity”; as for “QVQLVESVGGLVQAGGSLRLSCAASGITFPYYAMGWYRQAPGKERELVAAISRGDSTYYADSVKGRFTISRDNAKNTVYLQMNSLKPEDTAVYYCAARYGRYWSSCGSWTPYGYWGQGTQVTVSS”, “high polyreactivity”.
